The results in this text go back to article PMC4332406.

The target of the assay is Human α-defensin 5 (human). The experiment in a line: SPR. (In general: Surface plasmon resonance follows binding to a sensor surface in real time, without labels.)

Turning to Human α-defensin 5 (peptide), the molar ratio worked out at 1 and the stoichiometry N was 2.

A word on the stoichiometry N: it is the number of molecules, sites or subunits per partner or assembly.
